From paper PMC7470129, “Synthesis and structure-activity relationships of cerebroside analogues as substrates of cerebroside sulphotransferase and discovery of a competitive inhibitor” (Journal of Enzyme Inhibition and Medicinal Chemistry, 2020) come the findings set out here.

Assay in all cases: capillary electrophoresis enzyme assay, Michaelis-Menten kinetics (Km)
The target of data set [1] is T1, galactosylceramide (cerebroside) sulphotransferase (CST) (Homo sapiens, UniProt Q99999).
T1 construct: gene GAL3ST1
T1 sequence (Q99999 1-423): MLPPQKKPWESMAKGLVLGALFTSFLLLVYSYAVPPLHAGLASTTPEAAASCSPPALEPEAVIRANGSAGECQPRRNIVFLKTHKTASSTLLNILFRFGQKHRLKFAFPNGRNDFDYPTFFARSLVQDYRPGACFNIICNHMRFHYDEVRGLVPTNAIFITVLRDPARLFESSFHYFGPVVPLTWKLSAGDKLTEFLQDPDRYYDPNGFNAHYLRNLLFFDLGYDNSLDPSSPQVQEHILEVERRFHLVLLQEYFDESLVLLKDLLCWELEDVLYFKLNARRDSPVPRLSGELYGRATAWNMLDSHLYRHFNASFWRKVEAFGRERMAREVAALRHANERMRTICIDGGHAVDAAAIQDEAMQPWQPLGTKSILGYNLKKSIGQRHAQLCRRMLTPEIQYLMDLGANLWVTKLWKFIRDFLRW
The class given is biochemical.

Substrate in data set [2]: CCCCCCCCCCCCCC[C@@H](O)[C@@H](O)[C@H](CO[C@H]1O[C@H](CO)[C@H](O)[C@H](O)[C@H]1O)NC(=O)CCCC
In kind it is biochemical, Homo sapiens. The note with it: PAPS.

Substrate in data set [3]: CCCCCCCCCCCCCCCCCCC(=O)N[C@@H](CO[C@H]1O[C@H](CO)[C@H](O)[C@H](O)[C@H]1O)[C@H](O)[C@H](O)CCCCCCCCCCCCCC
The class given is biochemical, Homo sapiens. The note with it: PAPS.

For orientation: Km means the concentration of substrate that gives half-maximal velocity. As to `CCCCCCCCCCCCCCCCCCCCCCCCCC(=O)N[C@@H](CO[C@H]1O[C@H](CO)[C@H](O)[C@H](O)[C@H]1O)[C@H](O)[C@H](O)CCCCCCCCCCCCCC` [compound 18, KRN7000], in data set [1], the Km worked out at 438 µM.

With `CCCCCCCCCCCCCCCCCCCCCCCCCC(=O)N[C@@H](CO[C@@H]1O[C@H](CO)[C@H](O)[C@H](O)[C@H]1O)[C@H](O)[C@H](O)CCCCCCCCCCCCCC` [compound 10, β-KRN7000], the Km in data set [1] is 550 µM.

B1: galactosylceramide (cerebroside) sulphotransferase (CST) (Homo sapiens) (protein)
chain: MLPPQKKPWESMAKGLVLGALFTSFLLLVYSYAVPPLHAGLASTTPEAAASCSPPALEPEAVIRANGSAGECQPRRNIVFLKTHKTASSTLLNILFRFGQKHRLKFAFPNGRNDFDYPTFFARSLVQDYRPGACFNIICNHMRFHYDEVRGLVPTNAIFITVLRDPARLFESSFHYFGPVVPLTWKLSAGDKLTEFLQDPDRYYDPNGFNAHYLRNLLFFDLGYDNSLDPSSPQVQEHILEVERRFHLVLLQEYFDESLVLLKDLLCWELEDVLYFKLNARRDSPVPRLSGELYGRATAWNMLDSHLYRHFNASFWRKVEAFGRERMAREVAALRHANERMRTICIDGGHAVDAAAIQDEAMQPWQPLGTKSILGYNLKKSIGQRHAQLCRRMLTPEIQYLMDLGANLWVTKLWKFIRDFLRW
As usually defined, the Vmax is the top rate of the reaction or transport when substrate is in excess. Consider B1, for which, in data set [2], the Km stood at 358 µM and the Vmax came out at 0.0449 µmol/min/mg. Moreover, in data set [3], the Km is 521 µM and the Vmax worked out at 0.0519 µmol/min/mg.
